US20240409906, “INTEGRASES, LANDING PAD ARCHITECTURES, AND ENGINEERED CELLS COMPRISING THE SAME” (Asimov Inc., published 2024)

Tests used:
Settings in all cases: tags: C-terminal GS linker-SV40 NLS
[1] = biological target: T1, Int14 (Listeria innocua Clip11262); test: cell_activity; attB x attP EGFP inversion reporter, HEK293FT
T1 chain: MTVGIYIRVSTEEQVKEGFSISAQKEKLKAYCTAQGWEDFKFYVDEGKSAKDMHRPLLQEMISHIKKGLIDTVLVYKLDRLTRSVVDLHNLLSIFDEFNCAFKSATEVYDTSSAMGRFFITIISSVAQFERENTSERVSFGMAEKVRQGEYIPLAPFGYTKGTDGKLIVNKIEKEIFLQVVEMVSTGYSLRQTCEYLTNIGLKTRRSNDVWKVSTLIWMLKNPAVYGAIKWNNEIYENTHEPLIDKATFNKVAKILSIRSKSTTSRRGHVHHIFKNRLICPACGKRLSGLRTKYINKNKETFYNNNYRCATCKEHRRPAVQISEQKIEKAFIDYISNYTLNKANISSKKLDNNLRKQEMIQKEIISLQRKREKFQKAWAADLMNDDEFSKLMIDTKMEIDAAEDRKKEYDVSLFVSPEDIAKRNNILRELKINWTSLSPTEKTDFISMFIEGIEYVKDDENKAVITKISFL

[2] = biological target: T2, Int13 (Bacillus cytotoxicus NVH 391-98); test: as above
T2 chain: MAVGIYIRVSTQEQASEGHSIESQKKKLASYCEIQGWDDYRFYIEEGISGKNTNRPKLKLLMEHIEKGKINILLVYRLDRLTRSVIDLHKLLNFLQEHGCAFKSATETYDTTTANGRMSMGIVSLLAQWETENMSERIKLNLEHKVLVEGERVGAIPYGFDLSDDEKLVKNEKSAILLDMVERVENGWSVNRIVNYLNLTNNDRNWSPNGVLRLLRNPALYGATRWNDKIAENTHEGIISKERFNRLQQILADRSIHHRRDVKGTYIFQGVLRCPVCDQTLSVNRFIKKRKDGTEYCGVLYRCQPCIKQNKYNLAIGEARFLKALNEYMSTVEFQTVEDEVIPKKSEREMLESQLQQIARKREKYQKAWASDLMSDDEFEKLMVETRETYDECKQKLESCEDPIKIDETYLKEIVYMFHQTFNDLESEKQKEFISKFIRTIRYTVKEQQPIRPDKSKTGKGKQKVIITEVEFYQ

[3] = biological target: T3, Int16 (Enterococcus faecalis D32); test: cell_activity
T3 chain: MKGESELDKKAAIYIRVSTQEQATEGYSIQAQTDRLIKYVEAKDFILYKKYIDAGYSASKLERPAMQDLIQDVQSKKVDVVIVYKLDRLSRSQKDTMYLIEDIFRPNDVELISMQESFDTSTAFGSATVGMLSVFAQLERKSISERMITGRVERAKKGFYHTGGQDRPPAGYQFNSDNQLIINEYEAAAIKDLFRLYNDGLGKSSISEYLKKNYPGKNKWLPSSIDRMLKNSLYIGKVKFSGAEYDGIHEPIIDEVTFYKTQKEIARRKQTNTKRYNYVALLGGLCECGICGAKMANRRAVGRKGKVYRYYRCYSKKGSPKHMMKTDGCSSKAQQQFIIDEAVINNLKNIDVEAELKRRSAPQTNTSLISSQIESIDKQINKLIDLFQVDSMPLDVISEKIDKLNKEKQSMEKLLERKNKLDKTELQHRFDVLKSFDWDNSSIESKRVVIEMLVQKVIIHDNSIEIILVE

[4] = biological target: T4, Int22 (Geobacillus thermoglucosidasius C56-YS93); test: cell_activity; attB x attP EGFP inversion reporter, HEK293FT
T4 chain: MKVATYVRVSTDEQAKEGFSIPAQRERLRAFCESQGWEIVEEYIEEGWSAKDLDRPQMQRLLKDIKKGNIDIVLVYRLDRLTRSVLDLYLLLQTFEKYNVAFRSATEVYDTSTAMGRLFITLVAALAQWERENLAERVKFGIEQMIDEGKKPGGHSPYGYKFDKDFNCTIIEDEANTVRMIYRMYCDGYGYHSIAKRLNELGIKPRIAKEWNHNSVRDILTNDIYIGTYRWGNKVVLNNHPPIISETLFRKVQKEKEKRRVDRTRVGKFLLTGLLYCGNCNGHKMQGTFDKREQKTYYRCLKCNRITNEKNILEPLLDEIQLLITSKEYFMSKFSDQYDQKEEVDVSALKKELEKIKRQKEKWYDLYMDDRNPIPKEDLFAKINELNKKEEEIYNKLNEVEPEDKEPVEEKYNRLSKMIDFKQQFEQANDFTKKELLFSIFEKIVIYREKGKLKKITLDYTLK

[5] = biological target: T5, Int21 (Streptococcus mitis B6); test: as above
T5 chain: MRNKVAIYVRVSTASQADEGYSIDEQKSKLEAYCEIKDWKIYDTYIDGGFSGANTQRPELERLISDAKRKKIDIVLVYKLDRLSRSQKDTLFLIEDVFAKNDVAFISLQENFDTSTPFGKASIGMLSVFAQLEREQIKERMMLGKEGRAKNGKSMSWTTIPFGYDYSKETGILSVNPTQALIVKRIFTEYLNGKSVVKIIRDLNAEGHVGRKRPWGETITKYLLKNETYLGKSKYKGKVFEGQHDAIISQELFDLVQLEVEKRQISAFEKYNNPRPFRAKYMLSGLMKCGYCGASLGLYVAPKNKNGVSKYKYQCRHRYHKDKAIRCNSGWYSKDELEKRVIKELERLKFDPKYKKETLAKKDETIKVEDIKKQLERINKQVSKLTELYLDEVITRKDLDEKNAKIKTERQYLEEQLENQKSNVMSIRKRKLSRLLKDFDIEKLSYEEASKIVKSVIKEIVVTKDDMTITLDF

[6] = biological target: T6, Int18 (Streptococcus pneumoniae JJA); test: cell_activity
T6 chain: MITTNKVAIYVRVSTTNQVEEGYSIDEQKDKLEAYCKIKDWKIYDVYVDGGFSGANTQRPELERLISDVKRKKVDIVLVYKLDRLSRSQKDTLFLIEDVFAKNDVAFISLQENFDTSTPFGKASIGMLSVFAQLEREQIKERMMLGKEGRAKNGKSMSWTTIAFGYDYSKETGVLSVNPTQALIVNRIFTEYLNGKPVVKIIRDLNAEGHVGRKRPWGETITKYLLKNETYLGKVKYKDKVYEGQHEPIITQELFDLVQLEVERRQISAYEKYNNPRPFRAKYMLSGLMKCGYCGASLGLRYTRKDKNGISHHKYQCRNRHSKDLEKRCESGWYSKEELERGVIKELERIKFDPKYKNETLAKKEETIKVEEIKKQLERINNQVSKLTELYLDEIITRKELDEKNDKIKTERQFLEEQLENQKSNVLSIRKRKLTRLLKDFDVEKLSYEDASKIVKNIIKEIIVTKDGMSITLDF

[7] = biological target: T7, Int15 (Listeria monocytogenes SLCC2372 (phage …)); test: cell_activity
T7 chain: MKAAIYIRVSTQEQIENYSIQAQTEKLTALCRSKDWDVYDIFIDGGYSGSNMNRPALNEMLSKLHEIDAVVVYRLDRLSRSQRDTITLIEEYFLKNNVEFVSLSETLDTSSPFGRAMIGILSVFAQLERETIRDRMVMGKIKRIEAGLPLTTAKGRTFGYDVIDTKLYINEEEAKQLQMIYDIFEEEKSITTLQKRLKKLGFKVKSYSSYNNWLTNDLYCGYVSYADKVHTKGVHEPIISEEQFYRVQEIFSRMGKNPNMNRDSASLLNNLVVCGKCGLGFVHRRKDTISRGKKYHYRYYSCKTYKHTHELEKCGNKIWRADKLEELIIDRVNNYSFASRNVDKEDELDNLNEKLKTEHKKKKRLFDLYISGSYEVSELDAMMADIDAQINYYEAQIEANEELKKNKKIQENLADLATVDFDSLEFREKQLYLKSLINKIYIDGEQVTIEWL

B1: Int14 attP (dsDNA)
DNA 1: TTATATAAAATAGTGTTTTTGTAAAGTACACATCACCATATTTGACAAAAAACCTATAAATA
DNA 2: TATTTATAGGTTTTTTGTCAAATATGGTGATGTGTACTTTACAAAAACACTATTTTATATAA
For B1, the binding signal [1] was 0.248 fraction of Bxb1.

B2: Int13 attB (dsDNA)
DNA 1: CGCATACATTGTTGTTGTTTTTCCAGATCCAGTTGGTCCTGTAAATATAAGCAATCCATGTGAGT
DNA 2: ACTCACATGGATTGCTTATATTTACAGGACCAACTGGATCTGGAAAAACAACAACAATGTATGCG
With B2 the binding signal [2] was 0.295 fraction of Bxb1.

B3: Int14 attB (dsDNA)
DNA 1: TTATTGCAAGAAAAATGGGTTATAAGTACACATCAGGTTATAGTAATATCGAAAAAGGAAGC
DNA 2: GCTTCCTTTTTCGATATTACTATAACCTGATGTGTACTTATAACCCATTTTTCTTGCAATAA
For B3, the binding signal [1] was 0.248 fraction of Bxb1.

B4: Int16 attP (dsDNA)
DNA 1: GTATCTTGATGTACAACATTACTCTTTATTTTCAAATACAGAATAATGTTGCATATAATATT
DNA 2: AATATTATATGCAACATTATTCTGTATTTGAAAATAAAGAGTAATGTTGTACATCAAGATAC
In the case of B4, the binding signal [3] is reported as 0.21 fraction of Bxb1.

B5: Int22 attP (dsDNA)
DNA 1: TTATAAACCTGTTTTAAAGTTAACTTTACATGCCTAACATTAACTCTTATACAGGTTAAGGT
DNA 2: ACCTTAACCTGTATAAGAGTTAATGTTAGGCATGTAAAGTTAACTTTAAAACAGGTTTATAA
B5 was tested, and the binding signal [4] was 0.945 fraction of Bxb1.

B6: Int22 attB (dsDNA)
DNA 1: CAAGAAACGTTCCGTCTGTTTGTGTCAGCTGCGCGAAATTAATGACCGGATCGTTTGTTCC
DNA 2: GGAACAAACGATCCGGTCATTAATTTCGCGCAGCTGACACAAACAGACGGAACGTTTCTTG
With B6 the binding signal [4] was 0.945 fraction of Bxb1.

B7: Int13 attP (dsDNA)
DNA 1: CAATAACGGTTGTATTTGTAGAACTTGACCAGTTGTTTTAGTAACATAAATACAACTCCGAATA
DNA 2: TATTCGGAGTTGTATTTATGTTACTAAAACAACTGGTCAAGTTCTACAAATACAACCGTTATTG
For B7, the binding signal [2] was 0.295 fraction of Bxb1.

B8: Int21 attB (dsDNA)
DNA 1: TAGGAGGAAAAAATATGTATAATAAAGTTATCATGATTGGGCGTTTGACGTCTACACCAGAAT
DNA 2: ATTCTGGTGTAGACGTCAAACGCCCAATCATGATAACTTTATTATACATATTTTTTCCTCCTA
B8 was tested, and the binding signal [5] was 0.184 fraction of Bxb1.

B9: Int16 attB (dsDNA)
DNA 1: TTCTGGACCATGATGCGCCACTTCCGAAATTTCAAAAAGATCAGTGGTCAAACGGCTCATTA
DNA 2: TAATGAGCCGTTTGACCACTGATCTTTTTGAAATTTCGGAAGTGGCGCATCATGGTCCAGAA
B9 was tested, and the binding signal [3] was 0.21 fraction of Bxb1.

B10: Int21 attP (dsDNA)
DNA 1: GTTAATAATATGTATTTAAGTCTAACTTATCATGACAAATTTGACTAAAATACAAAAAGGC
DNA 2: GCCTTTTTGTATTTTAGTCAAATTTGTCATGATAAGTTAGACTTAAATACATATTATTAAC
With B10 the binding signal [5] was 0.184 fraction of Bxb1.

B11: Int18 attB (dsDNA)
DNA 1: TCTGGTGTAGACGTTAAACGTCCAATCAAGATAACTTTATTATACATATTTTCTTCCTCCTA
DNA 2: TAGGAGGAAGAAAATATGTATAATAAAGTTATCTTGATTGGACGTTTAACGTCTACACCAGA
B11 was tested, and the binding signal [6] was 1.76 fraction of Bxb1.

B12: Int18 attP (dsDNA)
DNA 1: TATTTCTGTATTTTAGTCAAAGTAATTAAGATAAGTTAGAGTTAGTAACAGTATTTTAACTT
DNA 2: AAGTTAAAATACTGTTACTAACTCTAACTTATCTTAATTACTTTGACTAAAATACAGAAATA
B12 was tested, and the binding signal [6] was 1.76 fraction of Bxb1.

B13: Int15 attB (dsDNA)
DNA 1: CTGTAACTTTTTCGGATCAAGCTATGAGGGACGCAAAGAGGGAACTAAACACTTAATTGGTG
DNA 2: CACCAATTAAGTGTTTAGTTCCCTCTTTGCGTCCCTCATAGCTTGATCCGAAAAAGTTACAG
B13 was tested, and the binding signal [7] was 1.86 fraction of Bxb1.

B14: Int15 attP (dsDNA)
DNA 1: TTGTTTAGTCCCTCGTTTTCTCTCGTTGGACGGAGACGAATCGAGAAACTAAAATTATAAAT
DNA 2: ATTTATAATTTTAGTTTCTCGATTCGTCTCCGTCCAACGAGAGAAAACGAGGGACTAAACAA
B14 was tested, and the binding signal [7] was 1.86 fraction of Bxb1.
